Laboratory results from patent CN111138530A (INST MILITARY MEDICINE ACADEMY MILITARY SCIENCES PLA, dated 2020).

Key:
sGP = sGP (Ebola virus (EBOV), UniProt Q05320 33-295); assay: ELISA on coated truncated GP
GP1 = GP1 (Ebola virus (EBOV), UniProt Q05320 33-501); assay: ELISA on coated truncated GP
GP 95-295 = GP 95-295 (Ebola virus (EBOV), UniProt Q05320 95-295); assay: ELISA on coated truncated GP
SUDV GP = molecular target: T1, SUDV GP (SUDV, UniProt Q7T9D9 33-650); assay: ELISA, coated GP 1 μg/mL, antibody titrated from 10 μg/mL
T1 sequence: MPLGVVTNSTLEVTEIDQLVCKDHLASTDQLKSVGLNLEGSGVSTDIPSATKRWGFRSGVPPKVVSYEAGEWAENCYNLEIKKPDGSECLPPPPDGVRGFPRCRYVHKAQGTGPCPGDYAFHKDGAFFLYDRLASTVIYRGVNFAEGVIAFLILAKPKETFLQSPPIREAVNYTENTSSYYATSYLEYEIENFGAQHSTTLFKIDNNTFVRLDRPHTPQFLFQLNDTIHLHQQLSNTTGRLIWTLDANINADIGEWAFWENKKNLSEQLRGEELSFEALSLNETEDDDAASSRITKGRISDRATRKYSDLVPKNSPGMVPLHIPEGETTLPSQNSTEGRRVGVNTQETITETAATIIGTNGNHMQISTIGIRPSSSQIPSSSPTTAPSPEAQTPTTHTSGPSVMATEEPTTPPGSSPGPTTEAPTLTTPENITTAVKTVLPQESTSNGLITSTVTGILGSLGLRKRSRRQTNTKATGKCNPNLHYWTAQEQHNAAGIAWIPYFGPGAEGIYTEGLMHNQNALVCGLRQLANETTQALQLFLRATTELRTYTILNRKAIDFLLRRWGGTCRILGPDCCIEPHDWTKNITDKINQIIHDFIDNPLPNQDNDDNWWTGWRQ

EBOV GP = molecular target: T2, EBOV GP (Ebola virus (EBOV), UniProt Q05320 33-650); assay: as above
T2 sequence: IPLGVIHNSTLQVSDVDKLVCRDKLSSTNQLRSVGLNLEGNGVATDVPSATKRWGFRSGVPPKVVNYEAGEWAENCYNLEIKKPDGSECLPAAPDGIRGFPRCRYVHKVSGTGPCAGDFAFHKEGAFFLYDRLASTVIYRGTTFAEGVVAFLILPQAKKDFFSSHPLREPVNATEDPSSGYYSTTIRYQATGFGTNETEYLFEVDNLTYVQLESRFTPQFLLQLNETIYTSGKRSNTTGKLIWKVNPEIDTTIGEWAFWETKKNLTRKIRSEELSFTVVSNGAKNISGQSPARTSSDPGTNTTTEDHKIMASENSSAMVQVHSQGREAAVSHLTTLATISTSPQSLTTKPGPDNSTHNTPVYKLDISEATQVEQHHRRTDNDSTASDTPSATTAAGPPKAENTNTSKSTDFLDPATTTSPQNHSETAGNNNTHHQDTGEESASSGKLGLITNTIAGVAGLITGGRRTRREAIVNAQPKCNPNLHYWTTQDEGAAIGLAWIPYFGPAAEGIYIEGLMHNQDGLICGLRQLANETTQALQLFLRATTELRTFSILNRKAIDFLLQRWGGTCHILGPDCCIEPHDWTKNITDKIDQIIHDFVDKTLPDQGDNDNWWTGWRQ

RESTV GP = molecular target: T3, RESTV GP (RESTV, UniProt Q66799 34-651); assay: as above
T3 sequence: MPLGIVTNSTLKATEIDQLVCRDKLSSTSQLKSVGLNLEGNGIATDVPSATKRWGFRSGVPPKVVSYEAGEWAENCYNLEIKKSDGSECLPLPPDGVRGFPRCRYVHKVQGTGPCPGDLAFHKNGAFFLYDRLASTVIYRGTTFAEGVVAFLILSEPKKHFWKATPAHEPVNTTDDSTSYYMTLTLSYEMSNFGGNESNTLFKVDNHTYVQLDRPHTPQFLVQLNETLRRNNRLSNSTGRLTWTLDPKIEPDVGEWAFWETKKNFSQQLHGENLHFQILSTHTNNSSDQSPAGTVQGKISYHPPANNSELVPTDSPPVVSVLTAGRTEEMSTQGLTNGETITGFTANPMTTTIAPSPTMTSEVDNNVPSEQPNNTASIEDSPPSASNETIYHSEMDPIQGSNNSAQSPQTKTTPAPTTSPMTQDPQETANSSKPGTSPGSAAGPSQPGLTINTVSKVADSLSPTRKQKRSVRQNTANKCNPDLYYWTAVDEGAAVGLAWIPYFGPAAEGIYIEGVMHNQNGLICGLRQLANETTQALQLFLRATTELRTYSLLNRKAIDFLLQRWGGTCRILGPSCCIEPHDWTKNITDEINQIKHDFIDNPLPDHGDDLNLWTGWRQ

B1: 抗埃博拉病毒糖蛋白GP1亚基的单克隆抗体5E9 (antibody, V domains shown)
VH: EVQLLESGGGLVKPGGSLRLSCVASGFTFTNAWMNWVRQAPGKGLEWVGRIKSKTDSGTTDYAAPVNGRFTISRDDSKNTLYLQMNSLKTEDTAVYYCTTRYQYNGMDVWGQGTTVTVSS
VL: QPVLTQPPSVSGAPGQRVTISCTGRSSNIGAGYDVHWYQHLPGTAPKLLIYANTNRPSGVPDRFSGSKSGTSASLAITGLQPGDEADYYCQSYDSRLSDHVVFGGGTKLTVLG
EC50 (sGP): 5 ng/mL | EC50 (GP1): 4.1 ng/mL | EC50 (GP 95-295): 11.8 ng/mL | EC50 (SUDV GP): > 1000 ng/mL | EC50 (EBOV GP): 6 ng/mL | EC50 (RESTV GP): 149 ng/mL
